Reference: patent US12411143B2, “CD146 and uses thereof as a biomarker and as a therapeutic target in the diagnosis and treatment of fibrosis” (ASSISTANCE PUBLIQUE HÔPITAUX DE MARSEILLE, priority 2018, dated 2025)

B1: rh-I10-sCD146: recombinant spliced variant of soluble CD146 containing intron 10, SEQ ID NO: 9 (protein, listed as Homo sapiens)
chain: MGLPRLVCAFLLAACCCCPRVAGVPGEAEQPAPELVEVEVGSTALLKCGLSQSQGNLSHVDWFSVHKEKRTLIFRVRQGQGQSEPGEYEQRLSLQDRGATLALTQVTPQDERIFLCQGKRPRSQEYRIQLRVYKAPEEPNIQVNPLGIPVNSKEPEEVATCVGRNGYPIPQVIWYKNGRPLKEEKNRVHIQSSQTVESSGLYTLQSILKAQLVKEDKDAQFYCELNYRLPSGNHMKESREVTVPVFYPTEKVWLEVEPVGMLKEGDRVEIRCLADGNPPPHFSISKQNPSTREAEEETTNDNGVLVLEPARKEHSGRYECQGLDLDTMISLLSEPQELLVNYVSDVRVSPAAPERQEGSSLTLTCEAESSQDLEFQWLREETGQVLERGPVLQLHDLKREAGGGYRCVASVPSIPGLNRTQLVNVAIFGEALPLGRDQVTPSGVVFKLFDKKPPAALGSSGAEGEAG
B2: rh-I5-13-sCD146: recombinant spliced variant of soluble CD146 containing introns 5 and 13, SEQ ID NO: 8 (protein, listed as Homo sapiens)
chain: MVYIVRQFLLYNVSGSVYLDQLIVLLTAKFSILRIAGSRVHHSPFSGHLDGCSFLSLQHSLHTSLDMSRHENVFLGLTLSSKSAGLKGFQLAFVPGLLQGTGGYLDGPLPTPVDNPRVGLEVGLRLSLPPLPPCPGVHIQSSQTVESSGLYTLQSILKAQLVKEDKDAQFYCELNYRLPSGNHMKESREVTVPVFYPTEKVWLEVEPVGMLKEGDRVEIRCLADGNPPPHFSISKQNPSTREAEEETTNDNGVLVLEPARKEHSGRYECQGLDLDTMISLLSEPQELLVNYVSDVRVSPAAPERQEGSSLTLTCEAESSQDLEFQWLREETGQVLERGPVLQLHDLKREAGGGYRCVASVPSIPGLNRTQLVNVAIFGPPWMAFKERKVWVKENMVLNLSCEASGHPRPTISWNVNGTASEQDQDPQRVLSTLNVLVTPELLETGVECTASNDLGKNTSILFLELVNLTTLTPDSNTTTGLSTSTASPHTRANSTSTGKPGLAREQGCARASFLPCPSPESPVQKGE

Tests used:
[1] = test system: renal and cardiac endothelial cells; test: In vitro endothelial-mesenchymal transition; type: cell-based
[2] = test system: b-catenin/TCF transcription activity; test: b-catenin/TCF transcription assay (luciferase) in Mouse Embryonic Fibroblasts; type: cell-based; details: MEF from CD146 KO mice treated with bleomycin
Procedure: B: Activation of canonical Wnt signalling (b-catenin/TCF transcription activity; Luciferase assay) was estimated in Mouse Embryonic Fibroblasts (MEF) from CD146 KO and WT mice. MEF were treated or not with bleomycin in the presence or absence of shed sCD146, I5-13-sCD146 or I10-sCD146. Results are the mean values +/−SEM of 5 independent experiments.
HUVEC were obtained as previously described and were cultured in EGM2 medium (Kaspi et al., 2017). MEF (Mouse Embryonic Fibroblasts) were isolated from day 13. Embryos from CD146 KO or WT mice were isolated and cultured as previously described (Xu J., 2005).
Luciferase assay was performed as previously described (Kaspi et al., 2017).

human renal fibroblasts = test: α-SMA and vimentin mRNA expression in primary culture of human renal fibroblasts; type: cell-based; details: sCD146 50 ng/ml, versus control without treatment
Procedure: The effect of sCD146 (50 ng/ml) was examined on primary culture from human fibroblasts. The effect of 500 ng/ml anti-sCD146 mAb administrated either alone (Ac) or with sCD146.
Results are mean values +/−SE of 3 experiments and expressed as fold change versus control condition without treatment.
The effect of anti-sCD146 treatment was observed on the mRNA expression of α-SMA and vimentin in human renal fibroblast in (in vitro) culture.

[3] = test system: chorio-allantoic membrane of the chick embryo; test: Chorio-allantoic membrane assay; type: in vivo; details: 25 ng/ml or 50 ng/ml, 48 h
Procedure: D: Yolk sac membrane assays were performed in the presence of 25 ng/ml or 50 ng/ml I5-13-sCD146 and I10-sCD146 for 48 h and compared to control. Representative pictures of 4 different experiments are given.
The chorio-allantoic membrane of the chick embryo assay (CAM) was performed using a previously described protocol (Beckers et al., 1997).
The chorio-allantoic membrane of the chick embryo assay (CAM) was surgically removed and fixed in 10% buffered formaldehyde for 10 hours, dehydrated in graded alcohol, cleared in xylene and embedded in paraffin. 5 μm thick sections were cut in a plane parallel to the surface of the CAM and stained by hematoxylin-eosin which was observed under a light photomicroscope.

ECFC = test: Permeability of ECFC monolayer to dextran-FITC; type: cell-based, human; details: treatment with recombinant proteins
Procedure: D: ECFC were transfected with siRNA targeting ADAM10 or Tace and with a control siRNA (C). The permeability of the ECFC monolayer grown on semi-permeable filters was determined using dextran-FITC. Results are the mean values+/−SEM of 3 experiments.
E: ECFC were transfected with plasmid vectors encoding ADAM10 (p-ADAM10) or Tace (p-Tace) and with a control plasmid vector (C). The permeability of the ECFC monolayer grown on semi-permeable filters was determined using dextran-FITC. Results are the mean values+/−SEM of 3 experiments. *: P<0.05, **: P<0.01, ***: P<0.001, experimental vs Control.
ECFC were seeded at 60,000 cells per well on membrane inserts (porosity 1 μm) of a 24-multiwell double chamber system (Multiwell Insert System, BD Biosciences, Le Pont de Claix, France) after siRNA transfection or not. Confluent endothelial monolayers were then incubated for 24 h in EGM-2 medium in the presence or absence of the different forms of sCD146. The FITC-dextran (sigma) was added at the apical surface of the cells and was allowed to migrate for 1.5 h at 37° C. Basolateral FITC-dextran was then measured using a Cytofluor Series 4000 Fluorescence (PerSeptiveBiosystems, Framingham, MA).

| Molecule | endothelial-mesenchymal transition [1] | b-catenin/TCF transcription activity [2] | α-SMA and vimentin mRNA expression (human renal fibroblasts) | vascularisation in chorio-allantoic membrane assay [3] | transendothelial permeability (ECFC) |
| --- | --- | --- | --- | --- | --- |
| sCD146: recombinant human soluble form of CD146 corresponding to the shed sCD146, obtained from Biocytex | induces in vitro an endothelial-mesenchymal transition | decreased b-catenin/TCF transcription activity | increase in α-SMA and vimentin mRNA expression | increased vascularisation |  |
| B1 |  | decreased b-catenin/TCF transcription activity |  | increased vascularisation | nor treatment with recombinant proteins corresponding to these variants modified transendothelial permeability |
| B2 |  | increased it |  | increased vascularisation | nor treatment with recombinant proteins corresponding to these variants modified transendothelial permeability |
